Data: US20170342349A1, “STABILIZED ENZYME COMPOSITIONS” (NOVOZYMES A/S, priority 2014, published 2017)

What was measured:
[1] = biological target: Protease P (SEQ ID NO 5) variant G127S + G128P + G129S + Y130P + D131S + M134L; assay: Ki fitted from Suc-AAPF-pNA activity in Model B detergent; IF relative to SEQ ID NO 5
[2] = biological target: Protease P (SEQ ID NO 5) variant M103S; assay: as above
[3] = biological target: Protease P (SEQ ID NO 5) variant G128P; assay: as above
[4] = biological target: Protease P (SEQ ID NO 5) variant M103A; assay: as above
[5] = biological target: Protease P (SEQ ID NO 5) variant Q64N; assay: as above
[6] = biological target: Protease P (SEQ ID NO 5) variant Q64F; assay: as above
[7] = biological target: TY145 (SEQ ID NO 3) variant S173P + S175P; assay: Ki fitted from Suc-AAPF-pNA activity in Model B detergent; IF relative to SEQ ID NO 3 comprising S173P + S175P (the reference itself)
TY145 (SEQ ID NO 3) variant S173P + S175P, sequence (chain, as listed by the source S173P S175P S173P S175P limits assumed): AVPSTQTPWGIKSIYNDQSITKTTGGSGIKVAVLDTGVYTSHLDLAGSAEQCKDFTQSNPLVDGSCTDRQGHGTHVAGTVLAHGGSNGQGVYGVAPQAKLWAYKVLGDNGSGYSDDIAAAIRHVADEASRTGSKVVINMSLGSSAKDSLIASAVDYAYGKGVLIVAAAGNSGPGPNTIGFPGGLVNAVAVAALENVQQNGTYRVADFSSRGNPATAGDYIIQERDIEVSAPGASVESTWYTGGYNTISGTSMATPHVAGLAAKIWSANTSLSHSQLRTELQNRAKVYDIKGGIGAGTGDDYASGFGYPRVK

[8] = biological target: Protease C (SEQ ID NO 6) (Lederbergia lenta (Bacillus lentus)) (UniProt P29600); assay: Ki fitted from Suc-AAPF-pNA activity in Model B detergent; IF relative to SEQ ID NO 6 (the reference itself)
[9] = biological target: TY145 (SEQ ID NO 3) variant I150V + S173P + S175P + F180Y; assay: Ki fitted from Suc-AAPF-pNA activity in Model B detergent; IF relative to SEQ ID NO 3 comprising S173P + S175P + F180Y
[10] = biological target: TY145 (SEQ ID NO 3) variant K146F + S173P + S175P + F180Y; assay: as above
[11] = biological target: TY145 (SEQ ID NO 3) variant S173P + S175P + I178Y + F180Y; assay: as above
[12] = biological target: TY145 (SEQ ID NO 3) variant S114A + S173P + S175P + F180Y; assay: as above
[13] = biological target: TY145 (SEQ ID NO 3) variant S173P + S175P + I178F + F180Y; assay: as above
[14] = biological target: TY145 (SEQ ID NO 3) variant K146A + S173P + S175P + F180Y; assay: as above
[15] = biological target: TY145 (SEQ ID NO 3) variant I150N + S173P + S175P + F180Y; assay: as above
[16] = biological target: TY145 (SEQ ID NO 3) variant S173P + S175P + F180Y + G182S; assay: as above
[17] = biological target: TY145 (SEQ ID NO 3) variant S114F + S173P + S175P + F180Y; assay: as above
[18] = biological target: TY145 (SEQ ID NO 3) variant S173P + S175P + I178P + F180Y; assay: as above
[19] = biological target: TY145 (SEQ ID NO 3) variant S114Q + S173P + S175P + F180Y; assay: as above
[20] = biological target: TY145 (SEQ ID NO 3) variant I150S + S173P + S175P + F180Y; assay: as above
[21] = biological target: TY145 (SEQ ID NO 3) variant S173P + S175P + F180Y + L184D; assay: as above
[22] = biological target: TY145 (SEQ ID NO 3) variant K146N + S173P + S175P + F180Y; assay: as above

Substance: Inhibitor 1: Cbz-Gly-Ala-NHCH(CH2C6H4pOH)C(OH)(SO3Na)-H (peptide)
- IF (binding constant improvement factor, relative Ki) [1]: 1.05
- IF (binding constant improvement factor, relative Ki) [2]: 1.73
- IF (binding constant improvement factor, relative Ki) [3]: 1.19
- IF (binding constant improvement factor, relative Ki) [4]: 2.31
- IF (binding constant improvement factor, relative Ki) [5]: 1.38
- IF (binding constant improvement factor, relative Ki) [6]: 3.44
- IF (binding constant improvement factor, relative Ki) [7]: 1
- IF (binding constant improvement factor, relative Ki) [8]: 1
- IF (binding constant improvement factor, relative Ki) [9]: 1.8
- IF (binding constant improvement factor, relative Ki) [10]: 5.17
- IF (binding constant improvement factor, relative Ki) [11]: 2.15
- IF (binding constant improvement factor, relative Ki) [12]: 3.33
- IF (binding constant improvement factor, relative Ki) [13]: 2.34
- IF (binding constant improvement factor, relative Ki) [14]: 3.72
- IF (binding constant improvement factor, relative Ki) [15]: 3.58
- IF (binding constant improvement factor, relative Ki) [16]: 1.69
- IF (binding constant improvement factor, relative Ki) [17]: 1.41
- IF (binding constant improvement factor, relative Ki) [18]: 2.22
- IF (binding constant improvement factor, relative Ki) [19]: 2.03
- IF (binding constant improvement factor, relative Ki) [20]: 5.7
- IF (binding constant improvement factor, relative Ki) [21]: 3.28
- IF (binding constant improvement factor, relative Ki) [22]: 1.36
